Square brackets hold non-standard residues; d marks the D form. Ends that are not written are not given here. Tyr(3-NO2) = N[C@@H](Cc1ccc(O)c([N+](=O)[O-])c1)C(=O)O; 2Abz = Nc1ccccc1C(=O)O
Experiments:
Type in all cases: biochemical
matriptase = target: T1, matriptase (Homo sapiens, UniProt Q9Y5Y6); assay: FRET peptide cleavage efficiency with matriptase
T1 construct: purchased R&D Systems 3946-SEB
T1 sequence (Q9Y5Y6 615-855 limits assumed): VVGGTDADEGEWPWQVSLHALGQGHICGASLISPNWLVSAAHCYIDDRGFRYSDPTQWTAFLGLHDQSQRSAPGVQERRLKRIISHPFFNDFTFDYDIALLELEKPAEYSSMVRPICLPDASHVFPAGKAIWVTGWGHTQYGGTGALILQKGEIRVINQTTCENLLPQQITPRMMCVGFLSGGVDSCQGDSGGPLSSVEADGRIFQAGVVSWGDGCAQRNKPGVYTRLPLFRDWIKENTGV

Kallikrein-3 = Kallikrein-3 (Homo sapiens, UniProt P07288); assay: FRET peptide cleavage efficiency with Kallikrein-3; conditions: peptide 200 uM, Kallikrein-3 2 μg/ml, 37° C., pH 8
MMP-2 = target: T2, MMP-2 (Homo sapiens, UniProt P08253); assay: FRET peptide cleavage efficiency with MMP-2
T2 construct: purchased SIGMA PF023
T2 sequence (P08253 110-660): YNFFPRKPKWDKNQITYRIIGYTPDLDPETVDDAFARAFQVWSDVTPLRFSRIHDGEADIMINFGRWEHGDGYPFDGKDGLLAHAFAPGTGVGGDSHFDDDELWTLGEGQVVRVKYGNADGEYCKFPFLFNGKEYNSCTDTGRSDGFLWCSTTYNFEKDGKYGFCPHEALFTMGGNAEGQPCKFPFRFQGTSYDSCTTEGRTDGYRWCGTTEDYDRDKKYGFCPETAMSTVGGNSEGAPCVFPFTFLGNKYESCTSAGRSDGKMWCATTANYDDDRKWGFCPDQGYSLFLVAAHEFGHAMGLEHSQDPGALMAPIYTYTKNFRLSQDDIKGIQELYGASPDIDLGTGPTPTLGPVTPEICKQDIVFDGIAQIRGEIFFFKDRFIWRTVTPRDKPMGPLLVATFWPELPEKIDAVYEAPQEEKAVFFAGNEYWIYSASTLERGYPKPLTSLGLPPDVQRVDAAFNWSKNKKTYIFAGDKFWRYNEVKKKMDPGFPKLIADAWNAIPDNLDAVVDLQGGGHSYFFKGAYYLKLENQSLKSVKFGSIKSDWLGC

MMP-7 = target: T3, MMP-7 (Homo sapiens, UniProt P09237); assay: FRET peptide cleavage efficiency with MMP-7 (standard pH 7.5; also pH 6.5)
T3 construct: purchased SIGMA CC1059
T3 sequence (P09237 95-267): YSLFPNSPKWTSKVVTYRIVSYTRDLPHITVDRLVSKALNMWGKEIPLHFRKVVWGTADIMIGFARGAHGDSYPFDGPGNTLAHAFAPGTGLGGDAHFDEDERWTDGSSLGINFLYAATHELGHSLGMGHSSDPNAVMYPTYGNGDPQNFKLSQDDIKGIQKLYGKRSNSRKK

uPA = uPA (Homo sapiens, UniProt P00749); assay: FRET peptide cleavage efficiency with uPA
MMP-9 = target: T4, MMP-9 (Homo sapiens, UniProt P14780); assay: FRET peptide cleavage efficiency with MMP-9 (standard pH 7.5; also pH 6.5)
T4 construct: purchased SIGMA PF024

[1] = t = 15 min, 200 uM linker, 1 ug/ml protease, 37° C., buffer B pH 9.0
[2] = t = 60 min, 200 uM linker, 1 ug/ml protease, 37° C., buffer B pH 9.0
[3] = 200 uM linker, 1 ug/ml protease, 37° C., buffer B pH 9.0
[4] = t = 15 min, 200 uM linker, 1 ug/ml protease, 37° C., buffer C pH 7.5
[5] = t = 60 min, 200 uM linker, 1 ug/ml protease, 37° C., buffer C pH 7.5
[6] = t = 120 min, 200 uM linker, 1 ug/ml protease, 37° C., buffer C pH 7.5

Sequence of Kallikrein-3 (P07288 25-261, species assumed): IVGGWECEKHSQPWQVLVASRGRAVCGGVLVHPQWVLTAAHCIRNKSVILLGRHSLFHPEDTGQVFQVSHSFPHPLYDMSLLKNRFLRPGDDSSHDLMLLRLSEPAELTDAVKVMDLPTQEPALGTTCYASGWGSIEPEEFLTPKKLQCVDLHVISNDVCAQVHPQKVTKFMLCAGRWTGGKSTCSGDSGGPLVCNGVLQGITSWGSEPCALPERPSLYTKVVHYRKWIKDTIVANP
T4 sequence (P14780 94-707): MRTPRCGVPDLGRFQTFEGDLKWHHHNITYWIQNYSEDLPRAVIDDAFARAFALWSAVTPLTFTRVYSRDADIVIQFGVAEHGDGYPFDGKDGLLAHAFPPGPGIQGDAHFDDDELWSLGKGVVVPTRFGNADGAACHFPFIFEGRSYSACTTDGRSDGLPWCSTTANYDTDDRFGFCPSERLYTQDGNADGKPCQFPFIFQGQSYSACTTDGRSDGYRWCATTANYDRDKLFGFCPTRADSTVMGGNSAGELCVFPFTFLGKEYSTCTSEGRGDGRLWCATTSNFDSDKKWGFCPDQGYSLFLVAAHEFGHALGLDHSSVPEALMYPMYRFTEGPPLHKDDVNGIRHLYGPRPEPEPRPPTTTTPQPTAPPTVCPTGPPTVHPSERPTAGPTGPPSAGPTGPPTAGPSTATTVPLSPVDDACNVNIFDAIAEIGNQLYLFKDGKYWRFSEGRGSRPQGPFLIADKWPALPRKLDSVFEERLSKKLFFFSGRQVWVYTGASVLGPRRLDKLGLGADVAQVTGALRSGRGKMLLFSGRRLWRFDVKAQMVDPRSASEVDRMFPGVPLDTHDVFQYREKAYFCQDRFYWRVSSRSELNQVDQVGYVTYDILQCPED

## SQYQSSPG ([2Abz]SQYQSSPG[Tyr(3-NO2)]-NH2) [LNK067]
matriptase; [1]
  % cleavage Matriptase t = 15 min: 0%
matriptase; [2]
  % cleavage Matriptase t = 60 min: 0%
matriptase; [3]
  % cleavage Matriptase t = 120 min: 0%
Kallikrein-3
  Kallikrein-3 t = 1 h % cleavage: 8%
  Kallikrein-3 t = 3 h % cleavage: 22%
  Kallikrein-3 t = 6 h % cleavage: 41%
  Kallikrein-3 t = 8 h % cleavage: 51%
MMP-2; [4]
  % cleavage MMP-2 t = 15 min: 1%
MMP-2; [5]
  % cleavage MMP-2 t = 60 min: 5%
MMP-2; [6]
  % cleavage MMP-2 t = 120 min: 10%

## SSLYSSPG ([2Abz]SSLYSSPG[Tyr(3-NO2)]-NH2) [LNK065]
matriptase; [1]
  % cleavage Matriptase t = 15 min: 0%
matriptase; [2]
  % cleavage Matriptase t = 60 min: 0%
matriptase; [3]
  % cleavage Matriptase t = 120 min: 0%
Kallikrein-3
  Kallikrein-3 t = 1 h % cleavage: 32%
  Kallikrein-3 t = 3 h % cleavage: 68%
  Kallikrein-3 t = 6 h % cleavage: 93%
  Kallikrein-3 t = 8 h % cleavage: 100%
MMP-2; [4]
  % cleavage MMP-2 t = 15 min: 3%
MMP-2; [5]
  % cleavage MMP-2 t = 60 min: 12%
MMP-2; [6]
  % cleavage MMP-2 t = 120 min: 21%

## SSLQSSPG ([2Abz]SSLQSSPG[Tyr(3-NO2)]-NH2) [LNK066]
matriptase; [1]
  % cleavage Matriptase t = 15 min: 0%
matriptase; [2]
  % cleavage Matriptase t = 60 min: 0%
matriptase; [3]
  % cleavage Matriptase t = 120 min: 0%
Kallikrein-3
  Kallikrein-3 t = 1 h % cleavage: 14%
  Kallikrein-3 t = 3 h % cleavage: 40%
  Kallikrein-3 t = 6 h % cleavage: 67%
  Kallikrein-3 t = 8 h % cleavage: 78%
MMP-2; [4]
  % cleavage MMP-2 t = 15 min: 1%
MMP-2; [5]
  % cleavage MMP-2 t = 60 min: 5%
MMP-2; [6]
  % cleavage MMP-2 t = 120 min: 9%

## SGRVAGLVG ([2Abz]SGRVAGLVG[Tyr(3-NO2)]-NH2) [LNK016]
MMP-7; t = 15 min (Table 9)
  % cleavage MMP-7 t = 15 min: 11%
MMP-7; t = 60 min (Table 9)
  % cleavage MMP-7 t = 60 min: 43%
MMP-7; t = 120 min (Table 9)
  % cleavage MMP-7 t = 120 min: 70%
uPA; pH 6.5, t = 60 min (Table 7)
  % cleavage uPA t = 60 min: 0%
uPA; pH 6.5, t = 120 min (Table 7)
  % cleavage uPA t = 120 min: 0%
uPA; pH 7.5, t = 60 min (Table 7)
  % cleavage uPA t = 60 min: 4%
uPA; pH 7.5, t = 120 min (Table 7)
  % cleavage uPA t = 120 min: 10%
uPA; t = 15 min, 200 uM linker, 1 ug/ml protease, 37° C., buffer A pH 8.5
  % cleavage uPA t = 15 min: 2%
uPA; t = 60 min, 200 uM linker, 1 ug/ml protease, 37° C., buffer A pH 8.5
  % cleavage uPA t = 60 min: 6%
uPA; t = 120 min, 200 uM linker, 1 ug/ml protease, 37° C., buffer A pH 8.5
  % cleavage uPA t = 120 min: 12%
MMP-9; t = 15 min (Table 9)
  % cleavage MMP-9 t = 15 min: 10%
MMP-9; t = 60 min (Table 9)
  % cleavage MMP-9 t = 60 min: 43%
MMP-9; t = 120 min (Table 9)
  % cleavage MMP-9 t = 120 min: 67%
matriptase; pH 6.5, t = 15 min (Table 7)
  % cleavage Matriptase t = 15 min: 8%
matriptase; pH 6.5, t = 60 min (Table 7)
  % cleavage Matriptase t = 60 min: 24%
matriptase; pH 7.5, t = 15 min (Table 7)
  % cleavage Matriptase t = 15 min: 17%
matriptase; pH 7.5, t = 60 min (Table 7)
  % cleavage Matriptase t = 60 min: 54%
matriptase; [1]
  % cleavage Matriptase t = 15 min: 22%
matriptase; [2]
  % cleavage Matriptase t = 60 min: 70%
matriptase; [3]
  % cleavage Matriptase t = 120 min: 92%
MMP-2; pH 6.5, t = 15 min (Table 7)
  % cleavage MMP-2 t = 15 min: 84%
MMP-2; pH 6.5, t = 60 min (Table 7)
  % cleavage MMP-2 t = 60 min: 100%
MMP-2; pH 7.5, t = 15 min (Table 7)
  % cleavage MMP-2 t = 15 min: 87%
MMP-2; pH 7.5, t = 60 min (Table 7)
  % cleavage MMP-2 t = 60 min: 100%
MMP-2; t = 15 min (Table 9)
  % cleavage MMP-2 t = 15 min: 72%
MMP-2; [4]
  % cleavage MMP-2 t = 15 min: 85%
MMP-2; t = 60 min (Table 9)
  % cleavage MMP-2 t = 60 min: 100%
MMP-2; [5]
  % cleavage MMP-2 t = 60 min: 99%
MMP-2; t = 120 min (Table 9)
  % cleavage MMP-2 t = 120 min: 100%
MMP-2; [6]
  % cleavage MMP-2 t = 120 min: 99%
